B1: EHMT1 (parent)
chain: SARQGELQKVLLMLVDGIDPNFKM
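Also: lentivirally expressed fusions sorted by FACS into six bins by GFP to DsRed ratio, PSI derived from sequencing read proportions per bin multiplied by bin number.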

The data set covers variants of B1. Description: protein stability index of a GFP-peptide fusion (GPS, HEK-293T) (PSI 1-6); higher = more stable. The settings on record: c terminus: a fixed tail appended.
For SARQGELQKVLLMLVDGIDANFKM [P20A], the protein stability index is 2.66.

With SARQGELQKVLLMLVDGIDRNFKM [P20R], the protein stability index came to 1.5.

Turning to SARQGELQKVLLMLVDGIDHNFKM [P20H], the protein stability index worked out at 1.75.

With SARQGELQKVLLMLVDGIDGNFKM [P20G], the protein stability index was 1.09.

Take SARQGELQKVLLMLVDGIDKNFKM [P20K]: the protein stability index was 1.76.

SARQGELQKVLLMLVDGIDFNFKM [P20F]: the protein stability index was found to be 2.59.

Consider SARQGELQKVLLMLVDGIDDNFKM [P20D], for which the protein stability index was 1.43.

As to SARQGELQKVLLMLVDGIDTNFKM [P20T], the protein stability index was 1.27.

With SARQGELQKVLLMLVDGIDMNFKM [P20M], the protein stability index amounted to 2.91.

Regarding SARQGELQKVLLMLVDGIDQNFKM [P20Q], the protein stability index was 1.83.

As for SARQGELQKVLLMLVKGIDPNFKM [D16K], the protein stability index worked out at 2.45.

SARQGELQKVLLMLVNGIDPNFKM [D16N]: the protein stability index turned out to be 2.72.

For SARQGELQKVLLMLVMGIDPNFKM [D16M], the protein stability index is 2.7.

Consider SARQGELQKVLLMLVVGIDPNFKM [D16V], for which the protein stability index came to 2.27.

For SARQGELQKVLLMLVFGIDPNFKM [D16F], the protein stability index stood at 1.6.

Regarding SARQGELQKVLLMLVEGIDPNFKM [D16E], the protein stability index turned out to be 1.51.

Consider SARQGELQKVLLMLVLGIDPNFKM [D16L], for which the protein stability index is 2.31.

Regarding SARQGELQKVLLMLVWGIDPNFKM [D16W], the protein stability index worked out at 1.96.

Take SARQGELQKVLLMLVCGIDPNFKM [D16C]: the protein stability index amounted to 1.61.

On to SARQGELQKVLLMLVAGIDPNFKM [D16A], for which the protein stability index came to 2.11.

Turning to SARQGELQKVLLMLVQGIDPNFKM [D16Q], the protein stability index worked out at 2.49.

Turning to SARQGELQKVLLMLVIGIDPNFKM [D16I], the protein stability index turned out to be 1.69.

Regarding SARQGELQKVLLMLVPGIDPNFKM [D16P], the protein stability index turned out to be 2.41.

For SARQGELQKVLLMLVTGIDPNFKM [D16T], the protein stability index was 2.8.

SARQGELYKVLLMLVDGIDPNFKM [Q8Y]: the protein stability index came out at 1.76.

In the case of SARQGELPKVLLMLVDGIDPNFKM [Q8P], the protein stability index was found to be 1.76.

As for SARQGELSKVLLMLVDGIDPNFKM [Q8S], the protein stability index worked out at 1.87.

Take SARQGELTKVLLMLVDGIDPNFKM [Q8T]: the protein stability index worked out at 2.02.

With SARQGELQKVTLMLVDGIDPNFKM [L11T], the protein stability index came out at 2.36.

For the variant SARQGELQKVFLMLVDGIDPNFKM [L11F], the protein stability index turned out to be 2.49.

Regarding SARQGELQKVALMLVDGIDPNFKM [L11A], the protein stability index amounted to 2.11.

For the variant SARQGELQKVMLMLVDGIDPNFKM [L11M], the protein stability index was 1.38.

Consider SARQGELQKVNLMLVDGIDPNFKM [L11N], for which the protein stability index turned out to be 3.23.

With SARQGELQKVCLMLVDGIDPNFKM [L11C], the protein stability index is 1.99.

For the variant SARQGELQKVGLMLVDGIDPNFKM [L11G], the protein stability index turned out to be 3.6.

Take SARQGELQKVSLMLVDGIDPNFKM [L11S]: the protein stability index was determined as 2.45.

As to SARQGELQKVHLMLVDGIDPNFKM [L11H], the protein stability index came to 2.15.

Take SARQGELQKVQLMLVDGIDPNFKM [L11Q]: the protein stability index worked out at 2.19.

For the variant SARQGELQKVYLMLVDGIDPNFKM [L11Y], the protein stability index came to 1.65.

On to SARQGELQKVPLMLVDGIDPNFKM [L11P], for which the protein stability index was determined as 3.13.

Consider SARQGELQKVKLMLVDGIDPNFKM [L11K], for which the protein stability index was 2.69.

With SARQGELQKVELMLVDGIDPNFKM [L11E], the protein stability index was determined as 3.28.

As to SARQGELQKVILMLVDGIDPNFKM [L11I], the protein stability index came to 2.1.

Turning to SARQGELQKVVLMLVDGIDPNFKM [L11V], the protein stability index was 2.7.

As to SARQGELQKVRLMLVDGIDPNFKM [L11R], the protein stability index was 2.53.

Regarding SARQGELQKVDLMLVDGIDPNFKM [L11D], the protein stability index turned out to be 3.35.

As for SARQGELQKVLLMLVDGIDPDFKM [N21D], the protein stability index is 1.41.

On to SARQGELQKVLLMLVDGEDPNFKM [I18E], for which the protein stability index came to 2.49.

SARQGELQKVLLMLVDGSDPNFKM [I18S]: the protein stability index was 1.97.

With SARQGELQKVLLMLVDGTDPNFKM [I18T], the protein stability index was determined as 2.22.

For SARQGELQKVLLMLVDGADPNFKM [I18A], the protein stability index worked out at 1.18.

In the case of SARQGELQKVLLMLVDGCDPNFKM [I18C], the protein stability index is 2.47.

On to SARQGELQKVLLMLVDGWDPNFKM [I18W], for which the protein stability index came out at 2.54.

For the variant SARQGELQKVLLMLVDGHDPNFKM [I18H], the protein stability index was found to be 2.42.

Regarding SARQGELQKVLLMLVDGVDPNFKM [I18V], the protein stability index stood at 1.59.

On to SARQGELQKVLLMLVDGFDPNFKM [I18F], for which the protein stability index came to 1.81.

SARQGELQKVLLMLVDGYDPNFKM [I18Y]: the protein stability index was 2.76.

Consider SARQGELQKVLLMLVDGPDPNFKM [I18P], for which the protein stability index was found to be 1.06.

On to SARQGELQKVLLMLVDGLDPNFKM [I18L], for which the protein stability index came out at 2.07.

Take SARQGELQKVLLMLVDGRDPNFKM [I18R]: the protein stability index stood at 1.66.

As to SARQGELQKVLLMLVDGQDPNFKM [I18Q], the protein stability index is 3.19.

As for SARQGELQKVLLMLVDGKDPNFKM [I18K], the protein stability index came to 1.46.

As to SARQGELQKVLLMLVDGDDPNFKM [I18D], the protein stability index was 2.22.

In the case of SARQGELQKVLLMLVDGNDPNFKM [I18N], the protein stability index was 2.24.

For the variant SARQGELQKVLLFLVDGIDPNFKM [M13F], the protein stability index came out at 1.83.

Regarding SARQGELQKVLLHLVDGIDPNFKM [M13H], the protein stability index is 1.88.

Regarding SARQGELQKVLLRLVDGIDPNFKM [M13R], the protein stability index came to 1.73.

With SARQGELQKVLLALVDGIDPNFKM [M13A], the protein stability index turned out to be 1.73.

As to SARQGELQKVLLELVDGIDPNFKM [M13E], the protein stability index is 3.12.

Take SARQGELQKVLLILVDGIDPNFKM [M13I]: the protein stability index amounted to 1.04.

In the case of SARQGELQKVLLSLVDGIDPNFKM [M13S], the protein stability index stood at 2.

Consider SARQGELQKVLLKLVDGIDPNFKM [M13K], for which the protein stability index worked out at 1.89.

For the variant SARQGELQKVLLDLVDGIDPNFKM [M13D], the protein stability index came to 2.97.

SARQGELQKVLLYLVDGIDPNFKM [M13Y]: the protein stability index turned out to be 2.47.

With SARQGELQKVLLNLVDGIDPNFKM [M13N], the protein stability index was 2.46.

Turning to SARQGELQKVLLLLVDGIDPNFKM [M13L], the protein stability index amounted to 2.11.

SARQGELQKVLLTLVDGIDPNFKM [M13T]: the protein stability index came out at 2.35.

Turning to SARQGELQKVLLQLVDGIDPNFKM [M13Q], the protein stability index was found to be 2.09.

For SARQGELQKVLLPLVDGIDPNFKM [M13P], the protein stability index amounted to 3.74.

SARQGELQKVLLGLVDGIDPNFKM [M13G]: the protein stability index was found to be 2.37.

Take SARQGELQKVLLMLVDGIAPNFKM [D19A]: the protein stability index stood at 3.05.

On to SARQGELQKVLLMLVDGIKPNFKM [D19K], for which the protein stability index stood at 1.81.

Regarding SARQGELQKVLLMLVDGIWPNFKM [D19W], the protein stability index came out at 2.35.

In the case of SARQGELQKVLLMLVDGIYPNFKM [D19Y], the protein stability index came to 2.73.

Take SARQGELQKVLLMLVDGIHPNFKM [D19H]: the protein stability index stood at 3.59.

For the variant SARQGELQKVLLMLVDGITPNFKM [D19T], the protein stability index worked out at 3.29.

Turning to SARQGELQKVLLMLVDGIEPNFKM [D19E], the protein stability index stood at 1.5.

For the variant SARQGELQKVLLMLVDGIGPNFKM [D19G], the protein stability index came to 2.8.

Regarding SARQGELQKVLLMLVDGISPNFKM [D19S], the protein stability index turned out to be 2.5.

On to SARQGELQKVLLMLVDGINPNFKM [D19N], for which the protein stability index came to 1.64.

With SARQGELQKVLLMLQDGIDPNFKM [V15Q], the protein stability index was 2.17.

Turning to SARQGELQKVLLMLGDGIDPNFKM [V15G], the protein stability index worked out at 2.

On to SARQGELQKVLLMLYDGIDPNFKM [V15Y], for which the protein stability index was 1.68.

Turning to SARQGELQKVLLMLDDGIDPNFKM [V15D], the protein stability index stood at 2.69.
